Data from patent US20220195015A1 (published 2022).
Changes are numbered by the printed parent chain.

B1: C514 (antibody, V domains shown)
VH: EVQLVESGGGLVQPGGSLRLSCAASEFIVTRNYMSWVRQAPGKGLEWVSLIYPGGSTFYADSVKGRFTISRDNSKNTLFLHMNSLRAEDTAVYYCARDLAGRLDYWGQGTLVTVSS
VL: DIQMTQSPSSLSASVGDRVTITCQASQDINNFLNWYQQKPGKAPKLLIYDASNLETGVPSRFSGSGSGTDFTFTISSLQPEDIAIYYCQQYDSLSRLTFGGGTKVEIK
B2: C517 (antibody, V domains shown)
VH: B1 VH with T30S, P53S, F58Y, F79Y, H81Q, V92M, L99I
VL: B1 VL with N30S, N31K, F32Y, I83F, I85T, Q90H
B3: C509 (antibody, V domains shown)
VH: QVQLQESGPGLVKPSGTLSLTCAVSGGSISSSNWWSWVRQPPGKGLEWIGEIYNSGSTNYNPSLKSRVTILVDKSKNQFSLKLSSVTAADTAVYYCAGSYSNYIGGVWFDPWGQGTLVTVSS
VL: EIVLTQSPATLSLSPGERATLSCRASQSVSTYLAWYQQKPGQAPRLLIYDASNRATGIPARFSGSGSGTDFTLTISSLEPEDFAVYYCQQRNNWLTFGGGTKVEIK
B4: C518 (antibody, V domains shown)
VH: EVQLVESGGGLIQPGGSLRLSCAASGITVSSNYMSWVRQAPGKGLEWVSVMYAGGSSFYADSVKGRFTISRDNSKNTLYLQMNSLRVEDTAVYYCARDLIALGVDVWGQGTTVTVSS
VL: DIQLTQSPSFLSASVGDRVTITCRASQGISSYLAWYQQKPGKAPKLLIYAASTLQSGVPSRFSGSGSGTEFTLTISSLQPEDFATYYCQLLNSYPMCSFGQGTKLEIK
B5: C519 (antibody, V domains shown)
VH: QVQLQESGPGLVKPSETLSLTCAVSGGSISSYYWSWIRQPPGKGLEWIGYIDTSGSTNYNPSLKSRVTMSVDTSKNQFSLNVNSVTAADTAVYFCGVCAGDCYAASVFDYRGQGTLVTVSS
VL: DIQMTQSPSSLSASVGDRVTITCQASQDIIFYLNWYQQKPGKAPKLLIYDASNLKTGVPSRFSGSGSGTDFAFTISSLQPEDIATYYCQQYDNLPLTFGGGTKVEIK
B6: C088 (antibody, V domains shown)
VH: QVQLVQSGAEAKKPGASVKVSCKTSGYTFTNYFMHWVRQAPGQGPEWMGIIDSSDGGASYAQKFQGRVTMTRDTSTSTVYMELRSLKFEDTAVYYCARASTSTTSWSDALSLGSWGQGTLVTVSS
VL: QSVLTQPPSVSGAPGQRVTISCTGSSSNIGGGSVVHWYQQLPGTAPKLLIYANSNRPSGVPDRFSGSKSGTSASLAIAGLQAEDEADYYCQSWDNGLSASGVVFGGGTKLTVL
B7: C523 (antibody, V domains shown)
VH: QVQLQESGPGLVKPSETLSLTCTVSGASISSHYWSWIRQPPGKGLEWIGYIHYIGSTNYNPSLKSRVTILLDTSKNQFSLRLRSVTAADTAVYYCARGWPYCGVDCYSGFDYWGQGTLVTVSS
VL: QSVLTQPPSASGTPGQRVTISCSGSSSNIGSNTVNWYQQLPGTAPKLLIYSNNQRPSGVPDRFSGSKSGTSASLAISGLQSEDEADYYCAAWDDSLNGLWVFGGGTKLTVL
B8: C506 (antibody, V domains shown)
VH: EVQLVESGGGLVQPGGSLRLSCAASGFTFSSYDMHWVRQGTGKGLEWVSVIGTAGDAYYPGSVKGRFTISRENAKNSLYLQMNSLRAGDTAVYYCARMVYDSSGFKGYFDLWGRGTLVTVSS
VL: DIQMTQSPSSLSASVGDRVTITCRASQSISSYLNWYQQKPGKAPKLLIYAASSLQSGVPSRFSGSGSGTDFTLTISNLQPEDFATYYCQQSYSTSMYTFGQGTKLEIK
B9: C503 (antibody, V domains shown)
VH: QVQLQESGPGLVQPSGTLSLSCTVTGGSISSNNWWSWVRQSPVKGLEWIGEIYHNGNINYNPSLKSRVTMSIDKSKNHFSLKLSSVTAADTAVYYCARGDVLDWFDPWGQGTLVTVS
VL: QSALTQPASVSGSPGQSITFSCTGTSSDVGAYNYISWYQQHPGKAPKLMIYDVNNRPSGVSRRFSGSKSGNTASLTISGLQSEDEADYFCSSYAGNSTVRFGGGTKLTVL
B10: C502 (antibody, V domains shown)
VH: QVQLVQSGAEVKKPGSSVKVSCKASGDTFSSHAINWVRQAPGQGLEWMGRSIPMLGVTTSAQKFKGRVTITADHSTSTVFMDLSSLRSDDTAIYYCARGVVGATPGSFDLWGQGTMVTVSS
VL: EIVMTQSPATLSVSPGKRATLSCRASQSVRSNLAWYQQRPGQAPRLLIYDAATRATGIPTRFSGSGSGTEFTLTISSLQSEDFAVYYCQQYDNGLTFGGGTKVEIK
B11: C516 (antibody, V domains shown)
VH: QVQLVQSGAEVKKPGSSVKVSCKASGGTFSSYAISWVRQAPGQGLEWMGRIIPMLVIATYARKFQGRVTITADKSTSTAYMELSSLRSEDTAVYYCARGVVAATPGNFDIWGQGTMVTVSS
VL: B10 VL with K17E, R30S, R39K, D50G, A52S, T60A, D92N
B12: C511 (antibody, V domains shown)
VH: EVQLVESGGGLVQPGGSLRLSCAATEITVSSNYMTWVRQAPGKGLEWVSVIYPGGSTFYADSVKGRFSISRDNSKNTLYLQMNSLRAEDTAVYYCARDLVVYGLDCWGQGTLVTVSS
VL: DIQLTQSPSFLSASVGDRVTITCRASQGISSYLAWYQQKPGKAPKLLIYAASTLQSGVPSRFSGSGSGTEFTLTISSLQPEDFATYYCQQLNTYPPPFGGGTKVEIK
B13: C515 (antibody, V domains shown)
VH: EVQLVESGGGLVQPGGSLRLSCAASGFIVSSNYMSWVRQAPGKGLEWVSILYSGGSTYYADSVKGRFTISRDNSKNTLYLQMNSLRAEDTAVYYCARDLVVYGADYWGQGTLVTVSS
VL: B12 VL with T93S
B14: C524 (antibody, V domains shown)
VH: EVQLVESGGDLIQPGGSLRLSCAASGFSVSNSYMSWVRQAPGKGLEWVSIIYSGGSTYYADSVKGRFTISRDNSKNTLYLQMNSLRAEDTAVYFCAKTPRGDYDSSGTSAYWGQGTLVTVSS
VL: QLVLTQSPSASASLGASVNLTCTLSSGHSSYAIAWHQQQPEKGPRFLMKLSSDGSHNKGDGIPDRFSGSSSGAERFLTISSLQSEDEADYYCQTWGIGSDWVFGGGTKLTVL
B15: C510 (antibody, V domains shown)
VH: QVQLQQWGAGLLKPSETLSRTCAVYGGSFSGYYWSWFRQSPGKGLEWIGEINHSGSTNYNPSLKNRVTISVDTSKNQFSLMLSSVTAADTAVYYCARGGFGVVINYYYSGMDVWGRGTTVTVSS
VL: not shown
B16: C089 (antibody, V domains shown)
VH: QVQLVESGGGVVQPGRSLRLSCAASGFTFRTYAMHWVRQAPGKGLEWVAVILSDGNNKYYADSVKGRFTISRDNSKNTLYLQMNSLRAEDTAIFYCAREQEANYYDISGYYHWGESLGYWGQGTLVTVSS
VL: DIQLTQSPSFLSASVGDRVTITCRASQGISSYLAWYQQKPGKAPKLLIYGASTLQSGVPSRFSGSGSGTEFTLTISSLQPEDFASYYCQKVNSHPPGLTFGGGTKVEIK
B17: C090 (antibody, V domains shown)
VH: B16 VH
VL: B16 VL with L46F, H94Y
B18: C512 (antibody, V domains shown)
VH: QVQLQESGPGLVKPSGTLSLTCAVSAGSISSNNWWSWVRQPPGKGLEWIGEVYHNGNINYNPSLKSRVTLSVDKSKNQFSLKLSSVTAADTAVYYCAKGGDRAMGPEYFDSWGQGTLVTVSS
VL: QSALTQPASVSGSPGQSITISCTGTSSDVGANNYVSWYQQHPGKAPKLMIYDVNERPSGVSNRFSGSKSGNTASLTISGLQTEDEADYYCSSFASSSTLLFGGGTKLTVL
B19: C505 (antibody, V domains shown)
VH: EVQLLESGGGLVQPGGSLRLSCADSGFSFSTYGMSWVRQAPGKGLEWVSTISGSGDNTYHADSVKGRFTISRDNSKNTLYLQMNSLRAEDTAVYYCAKNIAEMSTFDDYFYYYGMDVWGQGTTVTVSS
VL: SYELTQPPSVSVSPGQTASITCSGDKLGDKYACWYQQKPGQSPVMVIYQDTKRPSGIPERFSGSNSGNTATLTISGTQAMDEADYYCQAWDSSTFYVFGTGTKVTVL
B20: C507 (antibody, V domains shown)
VH: EVQLVESGGGVVQPGRSLRLSCAASGFTFSSYAIHWVRQAPGKGLEWVAVISFDGSNKYYRDSVKGRFTISRDNGKNTLYLQMNSLRAEDTAVYYCAKAALGYCTNGVCYCDNWGQGTLVTVSS
VL: NFMLTQPHSVSESPGKTVTISCTGSSGSIASNYVQWYQQRPGSAPTTVIYEDNQRPSGVPDRFSGSIDSSSNSASLSISGLKTEDEADYYCQSYDINSLWVFGGGTRLTVL
B21: C504 (antibody, V domains shown)
VH: QVQLQESGPGLVKPSETLSLTCTVSGGSISSSYWNWIRQSPGKGLEWIGYIYYDGYTTFNPSLKSRVTISVDTSKNQFSLKLSSVTAADTAFYYCAAGLKGRSSSWYEYWGQGTLVTVSS
VL: DIQMTQSPSSLSASVGDRVTITCRASQSISSYLNWYQQKPGKAPKLLIYATSSLQSGVPSRFSGSGSGTDFTLTITSLQPEDFATYYCQQTYSSPHTFGQGTKLEIK
B22: C513 (antibody, V domains shown)
VH: EVQLLESGGGLVQPGGSLRLSCVASGFSFSTYAMSWVRQAPGQGLEWVSTITGTSIGTYYADSVKGRFTISRDNSKNTVFLQMKSLRAEDAAVYYCANHPLASGDEYYYYYMDVWGKGTTVTVSS
VL: EIVLTQSPDTLSLSPGERATLSCRASQSVHSKQLAWYQQKPGQAPRLLIYGASSRATGIPDRFSGSGSGTDFTLTISRLEPEDFAVYYCQQYGSIRALTFGGGTKVEIK
B23: C597 (antibody, V domains shown)
VH: QVQLVQSGPEVKKPGTSVKVSCKASGFTFTNSAVQWVRQSRRQRLEWIGWIVVGSGNTNYAQKFQERVTITRDMSTSTAYMELSSLRSEDTAVYYCAAVDCNSTSCYDAFDIWGQGTMVTVSS
VL: EIVLTQSPGTLSLSPGERATLSCRASQSFRSSYLAWYQQKPGQAPRLLIYGASSRATGIPDRFSGSGSGSDFTLTISRLEPEDFAVYYCQQYDISPWTFGQGTKVEIK
B24: C598 (antibody, V domains shown)
VH: QVQLVQSGPEVKKPGTSVKVSCKASGFTFSSSAVQWVRQARGQRLEWIGWIVVGSGNTNYAQKFQERVTITRDMSTSTAYMELSSLRSEDTAVFYCAAPYCNVTTCFDGFNIWGRGTMVTVSS
VL: B23 VL with F29V, L34F, G51A, S70T, V86L, D93G, I94S

Key:
[1] = biological target: SARS-CoV-2 spike protein receptor binding domain (RBD), wild type (SARS-CoV-2, UniProt P0DTC2 319-539); test: ELISA, RBD protein coated on plate, antibody titrated
[2] = biological target: SARS-CoV-2 spike protein receptor binding domain (RBD) (SARS-CoV-2, UniProt P0DTC2 319-539); test: ELISA on coated RBD protein

Row | Binder | EC50 [1] [ng/mL] | EC50 [2] [ng/mL]
1 | B1 | 0.82 | –
2 | B2 | 0.87 | –
3 | B3 | 4.44 | –
4 | B4 | – | 1.13
5 | B5 | – | 1.07
6 | B6 | – | 2.44
7 | B7 | 9.08 | –
8 | B8 | 5.94 | –
9 | B9 | 6.55 | –
10 | B10 | 6.48 | –
11 | B11 | 5.72 | –
12 | B12 | 1.33 | –
13 | B13 | 1.73 | –
14 | B14 | 5 | –
15 | B15 | 308 | –
16 | B16 | – | 4.69
17 | B17 | – | 6.22
18 | B18 | 1.68 | –
19 | B19 | 16 | –
20 | B20 | 5.6 | –
21 | B21 | 9.08 | –
22 | B22 | 1.31 | –
23 | B23 | 3.77 | –
24 | B24 | 3.78 | –
